The record followed here is patent US6984501.

The test has as its target human Kv2.1 (human) (UniProt Q14721). As to the kind of experiment: cell-based or functional assay.

human Kv2.1 (from UniProt Q14721 1-858) showed a V0.5 of the activation voltage curve (Boltzmann fit of G/Gmax), whole-cell patch clamp on CHO cells of 10.8 mV and an inactivation time constant of the outward current, whole-cell patch clamp on CHO cells of 7.17 ms.
